Results on 41 sequences are retold here after the nanobody polyreactivity screen of Harvey et al. (2022).

The data set can be described thus: yeast display, Sf9 membrane polyspecificity reagent, FACS + sequencing; frameworks hold sequencing errors. In short, it runs like this: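 In a synthetic yeast display library (Saccharomyces cerevisiae BJ5465), nanobody expression was induced with galactose for 36–48 hours. FACS gates were set low and high (top ~1%) using anti-HA fluorescence for expression and streptavidin fluorescence for binding of the Sf9 membrane reagent. Each polyreactivity label is drawn from the gate of origin.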
Consider “QVQLVESGGGLVQAGGSLRLSCAASGRTFANYAMGWYRQAPGKERELVAAISSGGNTYYADSVKGRFTISRDNAKNTVYLQMNSLKPEDTAVYYCNAPWYYRYQRNEYGYWGQGTQVTVSS”, for which the “polyreactivity (PSR sort gate)” value is recorded as “high polyreactivity”.

As for “QVQLVESGGGLVQAGGSLRLSCAASGRTFAQNAMGWYRQAPGKERELVAAISSGGGRTYYADSVKGRFTISRDNAKNTVFLQMNSLKREDTAVYYCAAQGWLSYRYSPLKFGYWGQGTQVTVSS”, the “polyreactivity (PSR sort gate)” value was “high polyreactivity”.

Regarding “QVQLVESGGGLVQAGGSLRLSCAASGRTFAQYTMGWYRQAPGKERELVAGIDWSGGNTYYADSVKGRFTISRDNAKNTVYLQMNSLKPEDTAVYYCAAVPAFYNAWGEDYEYWGQGTQVTVSS”, the “polyreactivity (PSR sort gate)” value is given as “low polyreactivity”.

For the sequence “QVQLVESGGGLVQAGGSLRLSCAASGRTFARNAMGWYRPAPGKERELVAAIPRSGGSTYYADSVKGRFTISRDNAKNTVYLQMNSLKPEDTADYYCAAVGTGSSLRYDYWGQGTQVTVSS”, the “polyreactivity (PSR sort gate)” value is “high polyreactivity”.

As to “QVQLVESGGGLVQAGGSLRLSCAASGRTFARNAMGWYRQAAGKERELVAAITSIGTRTYYADAVKGRFTISRDNAKNTVYLQMNSLKPEDTAVYYCNKKRTADYDYWGQGTQVSVSS”, the “polyreactivity (PSR sort gate)” value is reported as “low polyreactivity”.

With “QVQLVESGGGLVQAGGSLRLSCAASGRTFARYAMGWYRQAPGKERELVAAISRGGTTNYADSVKGRFTISRDNAKNTVYLQMNSLKPEDTAVYYCNRDFHLIHLSSARLDYWGQGTQVTVSS”, the “polyreactivity (PSR sort gate)” value is “low polyreactivity”.

Regarding “QVQLVESGGGLVQAGGSLRLSCAASGRTFARYAMGWYRQAPGKERELVAAITRRGGSTYYADSVKGRFTISRDNAQNTVYLQMNSLKPEDTAVYYCAVPWYTRESGAYDYWGQGTQVTVSS”, the “polyreactivity (PSR sort gate)” value was “high polyreactivity”.

With “QVQLVESGGGLVQAGGSLRLSCAASGRTFARYAMGWYRQAPGKERELVARISSGGSTYYADSVKGRFTISRDNAKNTVYLQMNSLKPEDTAVYYCAASGWRYRYDYWGQGTQVTVSS”, the “polyreactivity (PSR sort gate)” value is listed as “high polyreactivity”.

As for “QVQLVESGGGLVQAGGSLRLSCAASGRTFARYGMGWYRQAPGKERELVATINWRSAGSTYYADSVKGRFTISRDNAKNTVYLLMNSLKPEDTAVYYCNVDSGRSYRVARYDYWGQGTQVTVSS”, the “polyreactivity (PSR sort gate)” value is recorded as “low polyreactivity”.

As for “QVQLVESGGGLVQAGGSLRLSCAASGRTFARYTMGWYRQAPGKERELVASITRGGSTYYADSVKGRFTISRDNAKNTVYLQMNSLKPEDTAVYYCAARFPQHNYWAMDYWGQGTQVTVSS”, the “polyreactivity (PSR sort gate)” value is listed as “high polyreactivity”.

Take “QVQLVESGGGLVQAGGSLRLSCAASGRTFASNAMGWYRQAPGKERELVAAISVTGGRTYYADSVKGRFTISRDNAKNTVYLQMNRLKPEDTAVYYCAKDLTLFSGPFPEFGYWGQGTQVTVSS”: the “polyreactivity (PSR sort gate)” value is reported as “low polyreactivity”.

As for “QVQLVESGGGLVQAGGSLRLSCAASGRTFASYAMGWYRQAPGKERELVASIRYSGGSTHYADSVKGRFTISRDNAKNTVYLQMNSLKPEDTAVNYCNARPKFRTYNYWGQGTQVTVSS”, the “polyreactivity (PSR sort gate)” value is “high polyreactivity”.

As to “QVQLVESGGGLVQAGGSLRLSCAASGRTFASYAMGWYRQAPGKERELVAVISRGGSNTNYADSVKGRFTISRDNAKNTVYLQLNSLKPEDTAVYYCADLAFKRYNPGGYDYWGQGTQVTVSS”, the “polyreactivity (PSR sort gate)” value is listed as “high polyreactivity”.

Regarding “QVQLVESGGGLVQAGGSLRLSCAASGRTFASYDMGWYRQEPGKERELVAAISVSGDSTYYADSVKGRFTISRDNAKNTFYLQMNSLKPEDTAVYYCNAEAQDYDHDYWGQSTQVTVSS”, the “polyreactivity (PSR sort gate)” value is “low polyreactivity”.

For the sequence “QVQLVESGGGLVQAGGSLRLSCAASGRTFASYGMGWYRQAPGKHRELVASITRRGGSTYYADSVKGRFTISRDNAKNTVYLQMNSLKPEDTAVYYCAATRVRSASYSIEYDYWGQGTQVTVSS”, the “polyreactivity (PSR sort gate)” value is given as “high polyreactivity”.

As for “QVQLVESGGGLVQAGGSLRLSCAASGRTFAVYAMGWYRPAPGKERELVAGITSGGSTNYADSVKGRFTISRDNAKNTVYLQMNSLKPEDTAVYYCAAENVYAGFGFVSIGDYWGQGTQVTVSS”, the “polyreactivity (PSR sort gate)” value is given as “low polyreactivity”.

Consider “QVQLVESGGGLVQAGGSLRLSCAASGRTFAVYAMGWYRQAPGKERELDAAITYGGGRTYYADSVKGRFTISRDNAKNTVYLQMYSLKPEDTAVYYCAADYYGTDYDYWGQGTQVTVSS”, for which the “polyreactivity (PSR sort gate)” value was “low polyreactivity”.

In the case of “QVQLVESGGGLVQAGGSLRLSCAASGRTFAVYSMGWYRQATGKERELVAVISSGGGTDYADSVKGRFRISRDNAKNTVYLQMNSLNPEDTAVYYCAADSVTFLATQPGDYWGQGTQVTVSS”, the “polyreactivity (PSR sort gate)” value is on record as “low polyreactivity”.

Regarding “QVQLVESGGGLVQAGGSLRLSCAASGRTFAVYTMGWYRQAPGKERELVARIRYSGGNTYYADSVKGRFTISRENAKNTVYLQMNSLKPEDTAVYYCAARSRYRIYASRNFDYWGQGTQVTVSS”, the “polyreactivity (PSR sort gate)” value is given as “high polyreactivity”.

Regarding “QVQLVESGGGLVQAGGSLRLSCAASGRTFAWYAMGWYIEAPGKERELVAAISSGGSTYYADSVKGRFTISRDNAKNTVYLQMNSLKPEDTAVYYCATRYAIAGWVGYYYWGQCTQVTVSS”, the “polyreactivity (PSR sort gate)” value is listed as “low polyreactivity”.

For the sequence “QVQLVESGGGLVQAGGSLRLSCAASGRTFAWYAMGWYRQAPGKERELVAAISNVGSTYYADSVKGRFTISRDNAKNTVYLHMNSLKPEHTAVYYCNADAVSTDGREYWGQGTQVTVSS”, the “polyreactivity (PSR sort gate)” value is on record as “low polyreactivity”.

Consider “QVQLVESGGGLVQAGGSLRLSCAASGRTFAWYAMGWYRQAPGKERELVAAISWSSDTTYYADSVKGRFTISRDNAKNTVYLQMNSLKPEDTAVYYCAAVFQGYTRKYYYWGQGTQVTVSS”, for which the “polyreactivity (PSR sort gate)” value is “high polyreactivity”.

As to “QVQLVESGGGLVQAGGSLRLSCAASGRTFAWYTMGWYRQAPGKERELVAAISGSGGSTYYADSVKGRFTISRDNAKNTVYLQMNSLKPEDTAVYYCARRVDSYYGHTRYYYWGQGTQVTVSS”, the “polyreactivity (PSR sort gate)” value is “high polyreactivity”.

For “QVQLVESGGGLVQAGGSLRLSCAASGRTFAWYTMGWYRQAPGKERELVAAISGSGGSTYYADSVKGRFTISRDNAKNTVYLQRKSLKPEDTAVYYCARRVHSYYGHTRYYYWGQGTQVTVSS”, the “polyreactivity (PSR sort gate)” value was “high polyreactivity”.

On to “QVQLVESGGGLVQAGGSLRLSCAASGRTFAWYTMGWYRQAPGKESELVAAISGSGGSTYYADSVKGRFTISRDNANNTVYLQMNSLKPDDTAVYYCARRVDSYYGHTRYYYWGQGTQVTVSS”, for which the “polyreactivity (PSR sort gate)” value is “high polyreactivity”.

On to “QVQLVESGGGLVQAGGSLRLSCAASGRTFAYNTMGWYRQAPGKERELVAAITSGGNTYYADSVKGRFTISRDNAKNTVYLQMNSLKPEDTAVYYCARYFTARLEGGYWGQGTQVTVSS”, for which the “polyreactivity (PSR sort gate)” value was “high polyreactivity”.

As to “QVQLVESGGGLVQAGGSLRLSCAASGRTFAYNTMGWYRQAPGKERELVARINSGTSTYYADSVKGRFTISRDNAKNTVYLEMNSLKPEDTAVYYCAARGSDYIRWYVGGRYGYWGQGSQVTVSS”, the “polyreactivity (PSR sort gate)” value is “low polyreactivity”.

In the case of “QVQLVESGGGLVQAGGSLRLSCAASGRTFAYYAMGWYRQAPGKERELVAAISGNGGRTYYADSVKGRFTISRDNAKNTVYLQMNSLKPEDTAVYYCNAAVGYYSYSYYTKVGVDYWGQGSQVTVSS”, the “polyreactivity (PSR sort gate)” value was “high polyreactivity”.

Consider “QVQLVESGGGLVQAGGSLRLSCAASGRTFAYYAMGWYRQAPGKERELVAAITRGGSTYYADSVKGRFTISRDNAKNTVYLQMNSLKPEDTAVYYCATLYTRYDSYLVKGKYGYWGQGTQVIVSS”, for which the “polyreactivity (PSR sort gate)” value is listed as “high polyreactivity”.

As for “QVQLVESGGGLVQAGGSLRLSCAASGRTFCGYTMGWYRQAPGKERELVAAITKRGGSTYYADSVKGRFTISRDNAKNTVYLQMNSLKPEDTAVYYCAKTKTAGTIKYDYWGQGTQVTVSS”, the “polyreactivity (PSR sort gate)” value is “high polyreactivity”.

As for “QVQLVESGGGLVQAGGSLRLSCAASGRTFDAYAMGWYRQAPGKERELVATITSGGGTYYADSVKGRFTISRDNEKNTVYLQMNSLKPEDYAVYYCNKRYVVSRKYDYWGQGTQVTVSS”, the “polyreactivity (PSR sort gate)” value is given as “low polyreactivity”.

On to “QVQLVESGGGLVQAGGSLRLSCAASGRTFDDNAMGWYRQAPGKERELVASISSGTSTNYADSVKGRFTISRDNAKNTVYVQMNCLKPEDTAVYYCNAYGPIWYTAVLGVGRYYGWTDYWGQGTQVTVSS”, for which the “polyreactivity (PSR sort gate)” value is recorded as “low polyreactivity”.

Consider “QVQLVESGGGLVQAGGSLRLSCAASGRTFDDYAKGWYRQAPGKETEFVAAITRSGGGTHYADSVKGRFTISRDNAKNTVYLQMNSLKPEDTAVYYCAARAHGTYVRRRYDYWGQGTQVTVSS”, for which the “polyreactivity (PSR sort gate)” value was “high polyreactivity”.

On to “QVQLVESGGGLVQAGGSLRLSCAASGRTFDFYAMGWYRQAPGKERELVASIDWDGGSTYYADSVKGRFTISRDNAKNTVYLQMNSLKPEDTAVYYCAKDGQKFTSSLYDYWGQGTQVTVSS”, for which the “polyreactivity (PSR sort gate)” value is reported as “low polyreactivity”.

In the case of “QVQLVESGGGLVQAGGSLRLSCAASGRTFDFYAMGWYRQAPGKERELVASNTFSTGSTTYADSVKGRFTISRDNAKITVYLQMNILKPEDTAVYYCAADGDCWWWSYVDRYDYWGQGTQVTVSS”, the “polyreactivity (PSR sort gate)” value was “low polyreactivity”.

For “QVQLVESGGGLVQAGGSLRLSCAASGRTFDGNTMGWYRQAPGKERELVAAITKRGGSTYYADSVKGRFTFSRDNAKNTVYLQMNSLKPEDTAVYYCAKGQSYSTRLSPYYYWGQGTQVTVSS”, the “polyreactivity (PSR sort gate)” value is on record as “high polyreactivity”.

As for “QVQLVESGGGLVQAGGSLRLSCAASGRTFDGNVMGWNRQAPGKERELVAAITASGGRTYYADSVKGRFTISRDNANNTVYIEMNSLNPEDTAVYYCAARIYRVYYVHFAPYYYWGQGTQVTVSS”, the “polyreactivity (PSR sort gate)” value was “high polyreactivity”.

As for “QVQLVESGGGLVQAGGSLRLSCAASGRTFDGYAMGWYRQAPGKERELVAAIDGGGSTNYADSVKGRFTISRDNAKNTVYLQMNSLKPEDTAVYYCAADRGSGPGYDYWGQGTQVTVSS”, the “polyreactivity (PSR sort gate)” value is recorded as “low polyreactivity”.

For “QVQLVESGGGLVQAGGSLRLSCAASGRTFDGYAMGWYRQAPGKERELVAAIDYDGVSTYYADSVKGRFTISRDNAKNTVYLEMNSLKPEDTAVYYCAVDATDDWWLDYWGQGTQVTVSS”, the “polyreactivity (PSR sort gate)” value was “low polyreactivity”.

“QVQLVESGGGLVQAGGSLRLSCAASGRTFDHNAMGWYRQAPGKERELVAAITWSGGITDYADSVKRPFTISRDNAKNTVYLQMNSLKPEDTAVWGQGTQVTVSS”: the “polyreactivity (PSR sort gate)” value is listed as “low polyreactivity”.

On to “QVQLVESGGGLVQAGGSLRLSCAASGRTFDHNTMGWYRQAPGTERELVAAISWSGGTTYYADSVKGRFTISRDNAKNTGYLQMNSLKPEDTAVYDCAADRSPGSYGYQYDYWGQGTQVTVSS”, for which the “polyreactivity (PSR sort gate)” value is listed as “low polyreactivity”.
